{"source": "paper PMC9001700", "about": "(Communications Biology, 2022)", "binders": {"B1": {"name": "CV3-25 IgG (antibody, V domains shown)", "VH": "QVQLVESGAEVKKPGESLKISCKGSGYTFTRYWIGWVRQMPGKGLEWMGIIYPGDSDTRYSPSFQGHVTISADKSISTAYLQWNSLKASDTAMYYCARLPQYCSNGVCQRWFDPWGQGTLVTVSS", "VL": "EIVLTQSPSSVSASVGDRVTITCRASQGISSWLAWYQQKPGKAPKLLIYAASSLQSGVPSRFSGSGSGTDFTLTISSLQPEDFATYYCQQGNSFPYTFGQGTNLEIK", "notes": "also called CV3-25 mAb; source: 293 cells, purified (protein A resin); copies: 2 + 2"}, "B2": {"name": "CV3-25 Fab (Fab, V domains shown)", "VH": "B1 VH", "VL": "B1 VL", "notes": "also called monovalent Fab"}}, "details_in_all_cases": "both partners purified", "key": {"[1]": {"target": "T1, HCoV-OC43 S-2P-T4f-3C-His8-Strep2x2 (stabilized spike ectodomain) (HCoV-OC43, strain , UniProt P36334, stabilised)", "T1 construct": "also called HCoV-OC43-S2P.his; stabilized spike ectodomain from HCoV-OC43; source: 293E cells, purified (Ni-NTA, SEC on superose 6)", "test": "BLI"}, "[2]": {"target": "T2, HCoV-HKU1 S-2P-T4f-3C-His8-Strep2x2 (stabilized spike ectodomain) (HCoV-HKU1, isolate  (isolate …, UniProt Q0ZME7, stabilised))", "T2 construct": "also called HCoV-HKU1-S2P.his; stabilized spike ectodomain from HCoV-HKU1; source: 293E cells, purified (Ni-NTA, SEC on superose 6)", "test": "BLI"}, "[3]": {"target": "T3, synthetic stem helix peptide spanning residues 1149–1167 (SARS-CoV-2, UniProt P0DTC2)", "T3 chain": "KEELDKYFKNHTSPDVDLG", "test": "crystal structure"}}, "data": [{"binder": "B1", "values": [{"measurement": "binding result", "setting": "[1]", "result": "binds"}, {"measurement": "binding result", "setting": "[2]", "result": "binds"}]}, {"binder": "B2", "values": [{"measurement": "binding result", "setting": "[3]", "result": "binds"}]}]}
